The values that follow come from patent US20240043547A1 (NUMAB THERAPEUTICS, published 2024).

Assay [1] addresses T1, human IL-31 (human, UniProt Q6EBC2 24-164, limits assumed).
T1 sequence (looked up): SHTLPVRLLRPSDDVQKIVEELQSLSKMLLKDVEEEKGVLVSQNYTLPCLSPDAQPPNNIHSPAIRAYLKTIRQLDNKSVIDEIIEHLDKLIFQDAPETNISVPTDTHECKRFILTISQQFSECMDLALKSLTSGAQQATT
Briefly: cell-based or functional assay.

In assay [2] the target is T1, human IL-31. Briefly: cell-based or functional assay. The source holds these as a separate data set.
Assay [3] concerns the target T1, human IL-31. Description: cell-based or functional assay. This is another data set of the same source.
Assay [4] has as its target T1, human IL-31. Briefly: cell-based or functional assay. This is another data set of the same source.
Assay [5] deals with T1, human IL-31. Description: cell-based or functional assay. The source holds these as a separate data set.
Assay [6] addresses T1, human IL-31. Description: cell-based or functional assay. This is another data set of the same source.
Assay [7] deals with T1, human IL-31. Briefly: competitive ELISA: IL-31RA coated, biotinylated IL-31 preincubated with the antibody, bound IL-31 detected with streptavidin-HRP; blocked interaction IL-31/IL-31RA.
In assay [8] the target is T1, human IL-31. Described as above. This is another data set of the same source.
For assay [9], the target named is T1, human IL-31. The description is as above. This is another data set of the same source.
The target of assay [10] is T1, human IL-31. Description: cell-based or functional assay. This is another data set of the same source.
Assay [11] concerns the target T1, human IL-31. Description: cell-based or functional assay. This is another data set of the same source.
The target of assay [12] is T1, human IL-31. Description: competitive ELISA: IL-31RA coated, biotinylated IL-31 preincubated with scFv. The text has this:
For this purpose, IL-31RA was coated on the ELISA plate.
Potency of the two humanized scFvs was further determined using a competitive ELISA.
(An ELISA detects its analyte on a solid surface through an enzyme-linked reagent.)

Assay [13] addresses T2, human IL-31-His (human, UniProt Q6EBC2 24-164).
T2 construct: form captured via anti-His tag antibody in the SPR of the scFvs (sections 1.8 and 2.4); also called hIL-31; not shown: His tag
T2 sequence (looked up): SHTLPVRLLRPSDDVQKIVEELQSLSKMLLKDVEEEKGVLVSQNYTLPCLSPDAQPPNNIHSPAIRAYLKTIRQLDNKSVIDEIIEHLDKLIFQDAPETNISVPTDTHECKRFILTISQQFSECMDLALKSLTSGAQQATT
Briefly: SPR (Biacore T200), human IL-31-His captured via anti-His antibody, scFv as analyte. On the procedure:
(§1) After each analyte injection cycle the sensor chip was regenerated and new antigen was captured. The scFvs were measured using a dose response multi-cycle kinetic assay in a high-throughput mode with two concentrations (30 and 10 nM) diluted in running buffer. Obtained sensorgrams were fitted using a 1:1 binding model.

Assay [14] concerns the target T2, human IL-31-His. The assay is described as above. On the procedure:
as §1
(§2) The scFvs were measured using a dose response multi-cycle kinetic assay in a high-throughput mode with two concentrations (30 and 10 nM) diluted in running buffer. Obtained sensorgrams were fitted using a 1:1 binding model.
The source holds these as a separate data set.

In assay [15] the target is T3, cynomolgus IL-31-His (cynomolgus monkey (Macaca fascicularis)).
T3 construct: extracellular domain; also called cynomolgus monkey IL-31; cyno IL-31
Description: SPR (Biacore T200), cynomolgus IL-31-His captured via anti-His antibody, scFv as analyte. On the procedure: as §1

The target in assay [16] is T3, cynomolgus IL-31-His. The description is as above. On the procedure: as §1, §2
This is another data set of the same source.

Read-outs that look alike come from different tables or passages of the source.

B1: BMS-981164 (antibody, V domains shown)
VH: QVQLVQSGAEVKKPGASVKVSCKASGYTLTRYWMQWVRQAPGQGLEWMGAIYPGDGDTRYSQKFQGRVTLTADKSTSTAYMELSSLRSEDTAVYYCAFPDGYYAAPYGMDYWGQGTLVTVSS
VL: DIQMTQSPSSLSASVGDRVTITCRASGNIHNYLAWYQQKPGKVPKLLIYNAKTLADGVPSRFSGSRSETQYSLTISSLQPEDVATYYCQHFWSTPWTFGQGTKVEIKR
Turning to B1, the “IC50 (read off the curve)” value is roughly 10 ng/mL in the assay with human IL-31 [1]; roughly 8 ng/mL with human IL-31 [2]; roughly 10 ng/mL with human IL-31 [3]; roughly 7 ng/mL in the assay with human IL-31 [4]; roughly 10 ng/mL in the assay with human IL-31 [5]; roughly 10 ng/mL with human IL-31 [6]. The “IC50 (read off the curve)” value in the assay with human IL-31 [7], with human IL-31 [8] and with human IL-31 [9] was roughly 10 ng/mL each time.

B2: PRO1643 (scFv)
scFv: AFQLTQSPSSLSASVGDRVTITCQASQSIDSWLAWYQQKPGKPPKLLIYQASKLASGVPSRFSGSGSGTDYTLTISSLQPEDFATYYCQTYYGGGHIGWGFGTGTKVTVLGGGGGSGGGGSGGGGSGGGGSQSQLVESGGGLVQPGGSLRLSCAASGFSFSANYWICWVRQAPGKGLEWIVCIYIGSRADTYYAPWAKGRFTISKDNSKNTVYLQMNSLRAEDTAVYFCARFSSGIYDLDRFFLWGQGTLVTVSS
notes: scFv (VL-linker-VH), full graft of rabbit clone 50-09-D07; also called 50-09-D07-sc03; 50-09-D07-5c03
Turning to B2, the “IC50 [ng/ml], neutralization of hIL-31-induced signaling in IL-31RA/OSMR dimerization assay” value is 11.1 ng/mL with human IL-31 [10] and 8.08 ng/mL with human IL-31 [11]. Also, the concentration for half-maximal inhibition (IC50) with human IL-31 [12] came out at 4.58 ng/mL. Besides, the dissociation constant Kd was 0.505 nM with human IL-31-His [13], 1.13 nM in the assay with human IL-31-His [14], 0.583 nM with cynomolgus IL-31-His [15] and 1.17 nM with cynomolgus IL-31-His [16]. The dissociation rate constant (koff) in the assay with human IL-31-His [13] is 0.000447 s⁻¹; with human IL-31-His [14] it was 0.000653 s⁻¹; in the assay with cynomolgus IL-31-His [15], 0.000444 s⁻¹; with cynomolgus IL-31-His [16], 0.000587 s⁻¹. Besides, the kon with human IL-31-His [13] was 884000 M⁻¹ s⁻¹; in the assay with human IL-31-His [14] it was 579000 M⁻¹ s⁻¹; in the assay with cynomolgus IL-31-His [15], 761000 M⁻¹ s⁻¹; with cynomolgus IL-31-His [16] it was 501000 M⁻¹ s⁻¹.

B3: PRO1902 (scFv)
scFv: AFQLTQSPSSLSASVGDRVTITCQASQSIDSWLAWYQQKPGKPPKLLIYQASKLASGVPSRFSGSGSGTDYTLTISSLQPEDFATYYCQTYYGGGHIGWGFGTGTKVTVLGGGGGSGGGGSGGGGSGGGGSQSQLVESGGGLVQPGGSLRLSCAASGFSFSANYWICWVRQAPGKGLEWIVCISIGSRADTYYAPWAKGRFTISKDNSKNTVYLQMNSLRAEDTAVYFCARFSSGIYDLDRFFLWGQGTLVTVSS
notes: scFv (VL-linker-VH); variant of PRO1643 with VH Y59S (AHo numbering); also called 50-09-D07-sc06; 50-09-D07-5c06
On to B3, for which, in the assay with human IL-31-His [14], the dissociation constant Kd came to 2.89 nM, the off-rate (koff) is 0.00246 s⁻¹ and the association rate constant (kon) turned out to be 852000 M⁻¹ s⁻¹.

B4: PRO1900 (scFv)
scFv: AFQLTQSPSSLSASVGDRVTITCQASQSIDSWLAWYQQKPGKPPKLLIYQASKLASGVPSRFSGSGSGTDYTLTISSLQPEDFATYYCQTYYGGGHIGWGFGTGTKVTVLGGGGGSGGGGSGGGGSGGGGSQSQLVESGGGRVQPGGSLRLSCAASGFSFSANYWICWVRQAPGKGLEWIVCIYIGSRADTYYAPWAKGRFTISKDNSKNTVYLQMNSLRAEDTATYFCARFSSGIYDLDRFFLWGQGTQVTVSS
notes: scFv (VL-linker-VH); variant of PRO1643 with VH L12R, V103T, L144Q (AHo numbering); also called 50-09-D07-sc04; 50-09-D07-5c04
Take B4: the “IC50 [ng/ml], neutralization of hIL-31-induced signaling in IL-31RA/OSMR dimerization assay” value with human IL-31 [11] amounted to 8.21 ng/mL. In the assay with human IL-31-His [14], this molecule had a dissociation constant (Kd) of 0.907 nM, a koff of 0.000599 s⁻¹ and a kon of 661000 M⁻¹ s⁻¹. In the assay with cynomolgus IL-31-His [16], this molecule showed a Kd of 1.07 nM, a koff of 0.000594 s⁻¹ and a kon of 554000 M⁻¹ s⁻¹.

B5: PRO1901 (scFv)
scFv: AFQLTQSPSSLSASVGDRVTITCQASQSIDSWLAWYQQKPGKPPKLLIYQASKLASGVPSRFSGSGSGTDYTLTISSLQPEDFATYYCQTYYGGGHIGWGFGTGTKVTVLGGGGGSGGGGSGGGGSGGGGSQSQLVESGGGSVQPGGSLRLSCAASGFSFSANYWICWVRQAPGKGLEWIVCIYIGSRADTYYAPWAKGRFTISKDNSKNTVYLQMNSLRAEDTATYFCARFSSGIYDLDRFFLWGQGTQVTVSS
notes: scFv (VL-linker-VH); variant of PRO1643 with VH L12S, V103T, L144Q (AHo numbering); also called 50-09-D07-sc05
In the assay with human IL-31-His [14], B5 registered a Kd of 0.956 nM, a koff of 0.000565 s⁻¹ and an on-rate (kon) of 591000 M⁻¹ s⁻¹.

B6: PRO1903 (scFv)
scFv: AFQLTQSPSSLSASVGDRVTITCQASQSIESWLAWYQQKPGKPPKLLIYQASKLASGVPSRFSGSGSGTDYTLTISSLQPEDFATYYCQTYYGGGHIGWGFGTGTKVTVLGGGGGSGGGGSGGGGSGGGGSQSQLVESGGGLVQPGGSLRLSCAASGFSFSANYWICWVRQAPGKGLEWIVCIYIGSRADTYYAPWAKGRFTISKDNSKNTVYLQMNSLRAEDTAVYFCARFSSGIYDLDRFFLWGQGTLVTVSS
notes: scFv (VL-linker-VH); variant of PRO1643 with VL D32E (AHo numbering); also called 50-09-D07-sc07; 50-09-D07-5c07
As to B6, in the assay with human IL-31-His [14], the Kd amounted to 1.22 nM, the koff amounted to 0.000638 s⁻¹ and the kon amounted to 524000 M⁻¹ s⁻¹.

Broadly, the IC50 is the concentration that inhibits the measured activity by half. A word on the Kd: it is the constant that tells how readily two partners part at equilibrium. Usually koff stands for the rate constant with which the complex falls apart. As a reminder, the kon is a measure of how fast the partners come together.
